Measured values taken from IntAct's records for PubMed 19229292.

Legend:
dlg2_rat Dlg2 = dlg2_rat Dlg2 (UniProt Q63622)
dlg1_rat Dlg1 = dlg1_rat Dlg1 (UniProt Q62696)
dlg3_rat Dlg3 = dlg3_rat Dlg3 (UniProt Q62936)

Measured: effect of a mutation on the interaction

Sequence of dlg1_rat Dlg1 (Q62696 whole entry): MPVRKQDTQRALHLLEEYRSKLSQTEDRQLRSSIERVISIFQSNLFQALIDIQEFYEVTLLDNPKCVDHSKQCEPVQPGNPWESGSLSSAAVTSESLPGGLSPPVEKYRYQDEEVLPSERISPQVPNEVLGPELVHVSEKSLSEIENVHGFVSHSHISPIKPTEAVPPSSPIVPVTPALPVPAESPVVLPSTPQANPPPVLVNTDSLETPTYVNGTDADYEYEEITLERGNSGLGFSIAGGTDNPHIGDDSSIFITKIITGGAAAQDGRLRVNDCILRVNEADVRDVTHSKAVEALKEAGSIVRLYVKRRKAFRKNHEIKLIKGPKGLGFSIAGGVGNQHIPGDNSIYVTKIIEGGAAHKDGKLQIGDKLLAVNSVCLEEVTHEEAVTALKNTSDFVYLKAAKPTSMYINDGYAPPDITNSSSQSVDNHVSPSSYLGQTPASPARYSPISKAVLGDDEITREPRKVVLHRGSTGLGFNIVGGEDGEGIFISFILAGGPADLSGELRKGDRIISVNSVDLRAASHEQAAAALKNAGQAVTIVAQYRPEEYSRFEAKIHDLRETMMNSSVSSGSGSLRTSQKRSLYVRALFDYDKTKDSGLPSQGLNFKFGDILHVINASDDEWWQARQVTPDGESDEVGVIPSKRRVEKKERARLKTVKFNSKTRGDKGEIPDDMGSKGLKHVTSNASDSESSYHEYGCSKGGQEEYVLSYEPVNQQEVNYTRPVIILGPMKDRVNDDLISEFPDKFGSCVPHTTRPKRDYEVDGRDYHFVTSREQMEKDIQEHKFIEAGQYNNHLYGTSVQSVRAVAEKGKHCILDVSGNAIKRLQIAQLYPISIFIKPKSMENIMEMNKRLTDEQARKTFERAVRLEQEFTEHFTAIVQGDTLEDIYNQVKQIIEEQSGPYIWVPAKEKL
Sequence of dlg3_rat Dlg3 (Q62936 whole entry): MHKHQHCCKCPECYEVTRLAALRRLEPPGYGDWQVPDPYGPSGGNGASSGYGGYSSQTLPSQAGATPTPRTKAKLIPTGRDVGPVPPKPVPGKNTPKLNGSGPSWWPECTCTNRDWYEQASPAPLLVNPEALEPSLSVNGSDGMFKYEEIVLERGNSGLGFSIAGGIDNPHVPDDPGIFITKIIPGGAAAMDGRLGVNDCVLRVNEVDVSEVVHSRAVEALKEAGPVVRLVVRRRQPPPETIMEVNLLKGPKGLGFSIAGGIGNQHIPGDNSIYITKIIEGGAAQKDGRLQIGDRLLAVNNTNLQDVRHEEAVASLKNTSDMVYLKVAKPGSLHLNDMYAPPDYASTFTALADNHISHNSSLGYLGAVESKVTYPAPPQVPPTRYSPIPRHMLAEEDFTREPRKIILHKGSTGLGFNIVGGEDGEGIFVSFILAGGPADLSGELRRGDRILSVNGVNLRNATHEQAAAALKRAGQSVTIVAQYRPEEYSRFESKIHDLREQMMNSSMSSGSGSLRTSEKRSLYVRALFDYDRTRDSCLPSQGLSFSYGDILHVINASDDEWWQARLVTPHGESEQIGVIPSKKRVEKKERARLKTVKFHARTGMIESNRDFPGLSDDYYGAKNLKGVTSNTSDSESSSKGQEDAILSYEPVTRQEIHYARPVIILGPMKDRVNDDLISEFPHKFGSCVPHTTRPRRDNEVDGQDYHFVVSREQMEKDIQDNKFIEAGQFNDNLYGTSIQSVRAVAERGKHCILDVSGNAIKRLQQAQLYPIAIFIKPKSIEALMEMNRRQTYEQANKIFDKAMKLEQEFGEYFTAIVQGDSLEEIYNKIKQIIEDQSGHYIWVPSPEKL
Sequence of dlg2_rat Dlg2 (Q63622 whole entry, looked up): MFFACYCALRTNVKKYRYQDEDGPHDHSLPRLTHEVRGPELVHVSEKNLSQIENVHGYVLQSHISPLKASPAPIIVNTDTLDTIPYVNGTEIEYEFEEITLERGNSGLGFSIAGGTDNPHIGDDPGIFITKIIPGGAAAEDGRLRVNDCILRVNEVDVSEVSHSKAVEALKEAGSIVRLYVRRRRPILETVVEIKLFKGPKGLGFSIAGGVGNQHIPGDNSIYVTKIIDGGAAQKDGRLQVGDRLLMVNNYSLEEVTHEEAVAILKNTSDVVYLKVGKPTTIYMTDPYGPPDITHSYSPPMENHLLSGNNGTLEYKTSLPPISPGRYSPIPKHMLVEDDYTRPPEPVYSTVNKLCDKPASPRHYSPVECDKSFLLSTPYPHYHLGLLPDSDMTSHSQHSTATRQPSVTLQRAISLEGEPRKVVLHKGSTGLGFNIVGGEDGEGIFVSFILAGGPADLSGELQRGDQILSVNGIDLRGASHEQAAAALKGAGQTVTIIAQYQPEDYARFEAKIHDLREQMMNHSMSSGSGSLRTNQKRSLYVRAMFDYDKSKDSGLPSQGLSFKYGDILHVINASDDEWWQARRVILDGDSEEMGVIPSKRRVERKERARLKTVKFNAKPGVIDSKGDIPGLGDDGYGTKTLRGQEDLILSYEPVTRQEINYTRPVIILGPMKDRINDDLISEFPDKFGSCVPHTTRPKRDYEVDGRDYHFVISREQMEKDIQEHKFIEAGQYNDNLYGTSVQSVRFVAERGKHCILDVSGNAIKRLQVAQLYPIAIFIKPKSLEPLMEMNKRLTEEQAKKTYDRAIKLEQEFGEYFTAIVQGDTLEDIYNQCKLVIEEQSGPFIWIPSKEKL

Diacylglycerol kinase zeta (Rattus norvegicus (Rat)), O08560 V929A
disrupting interaction: all assays above
